# Reference: paper PMC3515998
# Target: Gαi/o proteins (human (endogenous in HEK293T)) (UniProt P63096)
# UniProt P63096, sequence (P63096 whole entry): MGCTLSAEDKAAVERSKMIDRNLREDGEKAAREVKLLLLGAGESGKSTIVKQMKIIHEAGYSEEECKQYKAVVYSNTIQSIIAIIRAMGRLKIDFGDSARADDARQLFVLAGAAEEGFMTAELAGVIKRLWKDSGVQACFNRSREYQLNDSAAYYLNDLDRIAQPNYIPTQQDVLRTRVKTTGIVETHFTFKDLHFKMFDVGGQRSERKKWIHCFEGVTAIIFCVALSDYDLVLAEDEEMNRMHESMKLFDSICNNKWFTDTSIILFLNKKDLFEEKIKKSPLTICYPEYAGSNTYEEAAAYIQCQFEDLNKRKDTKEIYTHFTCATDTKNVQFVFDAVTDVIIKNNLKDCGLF
Substance,"EC50 of MCH for stimulation of [35S]GTPγS binding to membranes of transfected HEK293T cells (0.001-1000 nM MCH, 30 min, 30°C)","basal [35S]GTPγS binding to membranes (no MCH), percent of Flag-MCHR1","maximal [35S]GTPγS binding to membranes with 1 μM MCH, percent of basal"
F318K mutant of Flag-tagged rat MCHR1 (from UniProt P97639 1-353) (receptor),470 pM,97.6%,191 % of basal
Flag-MCHR1 (rat melanin-concentrating hormone receptor 1 with a Flag epitope tag before the first methionine) (from UniProt P97639 1-353),230 pM,,208 % of basal
